Measurements published in publication PMC8102066 (eLife, 2021).
Several values for one entry are separate records, joined by “and”; a condition that tells them apart may be missing. Equal values may be shown once.

How the values were obtained:
mGluR2 = mGluR2 (Rattus norvegicus, UniProt P31421); assay: Inter-LBD FRET (N-terminal SNAP-tags), live cells; conditions: SNAP-mGluR2
mGluR2-3xTM4 = mGluR2-3xTM4 (Rattus norvegicus, UniProt P31421, A677S/A681F/A685G); assay: Inter-LBD FRET (N-terminal SNAP-tags), live cells; conditions: SNAP-mGluR2-3xTM4
mGluR3 = mGluR3 (Rattus norvegicus, UniProt P31422); assay: Inter-LBD FRET (N-terminal SNAP-tags), live cells; conditions: SNAP-mGluR3
[1] = system: SNAP-tagged mGluR2 and mGluR3 constructs; assay: Surface expression measurements; format: cell-based, rat; conditions: construct; single measurements
Description: ImageJ was used to analyze fluorescence intensity of cell clusters. […] Fluorescence intensity values for each construct were normalized to wild-type values for comparison.

B1: SNAP-mGluR2 (protein)
chain: EGPAKKVLTLEGDLVLGGLFPVHQKGGPAEECGPVNEHRGIQRLEAMLFALDRINRDPHLLPGVRLGAHILDSCSKDTHALEQALDFVRASLSRGADGSRHICPDGSYATHSDAPTAVTGVIGGSYSDVSIQVANLLRLFQIPQISYASTSAKLSDKSRYDYFARTVPPDFFQAKAMAEILRFFNWTYVSTVASEGDYGETGIEAFELEARARNICVATSEKVGRAMSRAAFEGVVRALLQKPSARVAVLFTRSEDARELLAATQRLNASFTWVASDGWGALESVVAGSERAAEGAITIELASYPISDFASYFQSLDPWNNSRNPWFREFWEERFHCSFRQRDCAAHSLRAVPFEQESKIMFVVNAVYAMAHALHNMHRALCPNTTHLCDAMRPVNGRRLYKDFVLNVKFDAPFRPADTDDEVRFDRFGDGIGRYNIFTYLRAGSGRYRYQKVGYWAEGLTLDTSFIPWASPSAGPLPASRCSEPCLQNEVKSVQPGEVCCWLCIPCQPYEYRLDEFTCADCGLGYWPNASLTGCFELPQEYIRWGDAWAVGPVTIACLGALATLFVLGVFVRHNATPVVKASGRELCYILLGGVFLCYCMTFVFIAKPSTAVCTLRRLGLGTAFSVCYSALLTKTNRIARIFGGAREGAQRPRFISPASQVAICLALISGQLLIVAAWLVVEAPGTGKETAPERREVVTLRCNHRDASMLGSLAYNVLLIALCTLYAFKTRKCPENFNEAKFIGFTMYTTCIIWLAFLPIFYVTSSDYRVQTTTMCVSVSLSGSVVLGCLFAPKLHIILFQPQKNVVSHRAPTSRFGSAAPRASANLGQGSGSQFVPTVCNGREVVDSTTSSL
modifications: SNAP tag labelled with BG-LD555 (BG-LD655 in two-colour SiMPull); left off: HA, N-terminal, kept | SNAP, N-terminal, kept
mGluR2
  Basal LBD FRET (%): 0%

B2: SNAP-mGluR2-3xTM4 (protein)
chain: EGPAKKVLTLEGDLVLGGLFPVHQKGGPAEECGPVNEHRGIQRLEAMLFALDRINRDPHLLPGVRLGAHILDSCSKDTHALEQALDFVRASLSRGADGSRHICPDGSYATHSDAPTAVTGVIGGSYSDVSIQVANLLRLFQIPQISYASTSAKLSDKSRYDYFARTVPPDFFQAKAMAEILRFFNWTYVSTVASEGDYGETGIEAFELEARARNICVATSEKVGRAMSRAAFEGVVRALLQKPSARVAVLFTRSEDARELLAATQRLNASFTWVASDGWGALESVVAGSERAAEGAITIELASYPISDFASYFQSLDPWNNSRNPWFREFWEERFHCSFRQRDCAAHSLRAVPFEQESKIMFVVNAVYAMAHALHNMHRALCPNTTHLCDAMRPVNGRRLYKDFVLNVKFDAPFRPADTDDEVRFDRFGDGIGRYNIFTYLRAGSGRYRYQKVGYWAEGLTLDTSFIPWASPSAGPLPASRCSEPCLQNEVKSVQPGEVCCWLCIPCQPYEYRLDEFTCADCGLGYWPNASLTGCFELPQEYIRWGDAWAVGPVTIACLGALATLFVLGVFVRHNATPVVKASGRELCYILLGGVFLCYCMTFVFIAKPSTAVCTLRRLGLGTAFSVCYSALLTKTNRIARIFGGAREGAQRPRFISPSSQVFICLGLISGQLLIVAAWLVVEAPGTGKETAPERREVVTLRCNHRDASMLGSLAYNVLLIALCTLYAFKTRKCPENFNEAKFIGFTMYTTCIIWLAFLPIFYVTSSDYRVQTTTMCVSVSLSGSVVLGCLFAPKLHIILFQPQKNVVSHRAPTSRFGSAAPRASANLGQGSGSQFVPTVCNGREVVDSTTSSL
modifications: SNAP tag labelled with BG-LD555; left off: HA, N-terminal, kept | SNAP, N-terminal, kept
mGluR2-3xTM4
  Basal LBD FRET (%): 0%

B3: SNAP-mGluR3 (protein)
chain: LGDHNFMRREIKIEGDLVLGGLFPINEKGTGTEECGRINEDRGIQRLEAMLFAIDEINKDNYLLPGVKLGVHILDTCSRDTYALEQSLEFVRASLTKVDEAEYMCPDGSYAIQENIPLLIAGVIGGSYSSVSIQVANLLRLFQIPQISYASTSAKLSDKSRYDYFARTVPPDFYQAKAMAEILRFFNWTYVSTVASEGDYGETGIEAFEQEARLRNICIATAEKVGRSNIRKSYDSVIRELLQKPNARVVVLFMRSDDSRELIAAANRVNASFTWVASDGWGAQESIVKGSEHVAYGAITLELASHPVRQFDRYFQSLNPYNNHRNPWFRDFWEQKFQCSLQNKRNHRQVCDKHLAIDSSNYEQESKIMFVVNAVYAMAHALHKMQRTLCPNTTKLCDAMKILDGKKLYKEYLLKINFTAPFNPNKGADSIVKFDTFGDGMGRYNVFNLQQTGGKYSYLKVGHWAETLSLDVDSIHWSRNSVPTSQCSDPCAPNEMKNMQPGDVCCWICIPCEPYEYLVDEFTCMDCGPGQWPTADLSGCYNLPEDYIKWEDAWAIGPVTIACLGFLCTCIVITVFIKHNNTPLVKASGRELCYILLFGVSLSYCMTFFFIAKPSPVICALRRLGLGTSFAICYSALLTKTNCIARIFDGVKNGAQRPKFISPSSQVFICLGLILVQIVMVSVWLILETPGTRRYTLPEKRETVILKCNVKDSSMLISLTYDVVLVILCTVYAFKTRKCPENFNEAKFIGFTMYTTCIIWLAFLPIFYVTSSDYRVQTTTMCISVSLSGFVVLGCLFAPKVHIVLFQPQKNVVTHRLHLNRFSVSGTATTYSQSSASTYVPTVCNGREVLDSTTSSL
modifications: SNAP tag labelled with BG-LD555 (BG-LD655 in two-colour SiMPull); left off: HA, N-terminal, kept | SNAP, N-terminal, kept
mGluR3
  Basal LBD FRET (%): 20% and 30% and 23% and 24%

B4: SNAP-mGluR3-C127A-I788A (protein)
chain: LGDHNFMRREIKIEGDLVLGGLFPINEKGTGTEECGRINEDRGIQRLEAMLFAIDEINKDNYLLPGVKLGVHILDTCSRDTYALEQSLEFVRASLTKVDEAEYMAPDGSYAIQENIPLLIAGVIGGSYSSVSIQVANLLRLFQIPQISYASTSAKLSDKSRYDYFARTVPPDFYQAKAMAEILRFFNWTYVSTVASEGDYGETGIEAFEQEARLRNICIATAEKVGRSNIRKSYDSVIRELLQKPNARVVVLFMRSDDSRELIAAANRVNASFTWVASDGWGAQESIVKGSEHVAYGAITLELASHPVRQFDRYFQSLNPYNNHRNPWFRDFWEQKFQCSLQNKRNHRQVCDKHLAIDSSNYEQESKIMFVVNAVYAMAHALHKMQRTLCPNTTKLCDAMKILDGKKLYKEYLLKINFTAPFNPNKGADSIVKFDTFGDGMGRYNVFNLQQTGGKYSYLKVGHWAETLSLDVDSIHWSRNSVPTSQCSDPCAPNEMKNMQPGDVCCWICIPCEPYEYLVDEFTCMDCGPGQWPTADLSGCYNLPEDYIKWEDAWAIGPVTIACLGFLCTCIVITVFIKHNNTPLVKASGRELCYILLFGVSLSYCMTFFFIAKPSPVICALRRLGLGTSFAICYSALLTKTNCIARIFDGVKNGAQRPKFISPSSQVFICLGLILVQIVMVSVWLILETPGTRRYTLPEKRETVILKCNVKDSSMLISLTYDVVLVILCTVYAFKTRKCPENFNEAKFIGFTMYTTCIIWLAFLPAFYVTSSDYRVQTTTMCISVSLSGFVVLGCLFAPKVHIVLFQPQKNVVTHRLHLNRFSVSGTATTYSQSSASTYVPTVCNGREVLDSTTSSL
modifications: SNAP tag labelled with BG-LD555; left off: HA, N-terminal, kept | SNAP, N-terminal, kept
[1]
  Surface Expression: 1.29 and 0.91 and 1.30 and 0.67 and 0.74 and 0.86 and 1.22 and 0.70

B5: SNAP-mGluR3-I788A (protein, UniProt Q14832 23-879, looked up, variant I788A)
Metabotropic glutamate …: LGDHNFLRREIKIEGDLVLGGLFPINEKGTGTEECGRINEDRGIQRLEAMLFAIDEINKDDYLLPGVKLGVHILDTCSRDTYALEQSLEFVRASLTKVDEAEYMCPDGSYAIQENIPLLIAGVIGGSYSSVSIQVANLLRLFQIPQISYASTSAKLSDKSRYDYFARTVPPDFYQAKAMAEILRFFNWTYVSTVASEGDYGETGIEAFEQEARLRNICIATAEKVGRSNIRKSYDSVIRELLQKPNARVVVLFMRSDDSRELIAAASRANASFTWVASDGWGAQESIIKGSEHVAYGAITLELASQPVRQFDRYFQSLNPYNNHRNPWFRDFWEQKFQCSLQNKRNHRRVCDKHLAIDSSNYEQESKIMFVVNAVYAMAHALHKMQRTLCPNTTKLCDAMKILDGKKLYKDYLLKINFTAPFNPNKDADSIVKFDTFGDGMGRYNVFNFQNVGGKYSYLKVGHWAETLSLDVNSIHWSRNSVPTSQCSDPCAPNEMKNMQPGDVCCWICIPCEPYEYLADEFTCMDCGSGQWPTADLTGCYDLPEDYIRWEDAWAIGPVTIACLGFMCTCMVVTVFIKHNNTPLVKASGRELCYILLFGVGLSYCMTFFFIAKPSPVICALRRLGLGSSFAICYSALLTKTNCIARIFDGVKNGAQRPKFISPSSQVFICLGLILVQIVMVSVWLILEAPGTRRYTLAEKRETVILKCNVKDSSMLISLTYDVILVILCTVYAFKTRKCPENFNEAKFIGFTMYTTCIIWLAFLPAFYVTSSDYRVQTTTMCISVSLSGFVVLGCLFAPKVHIILFQPQKNVVTHRLHLNRFSVSGTGTTYSQSSASTYVPTVCNGREVLDSTTSSL
modifications: N-terminal SNAP tag
[1]
  Surface Expression: 1.08 and 0.88 and 0.76 and 0.68 and 0.70 and 0.97 and 0.75
